These results are taken from the nanobody polyreactivity screen of Harvey et al. (2022).

The data set can be described thus: yeast display, Sf9 membrane polyspecificity reagent, FACS + sequencing; frameworks hold sequencing errors. Put shortly: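 Synthetic nanobody libraries on Saccharomyces cerevisiae BJ5465 were galactose-induced for 36–48 hours, stained 1 hour at 4 °C with 10% biotinylated, detergent-solubilized Sf9 membrane reagent and enriched on streptavidin microbeads. FACS then separated cells into low and high (top ~1%) gates by anti-HA (expression) and streptavidin (reagent binding) fluorescence. Genes were colony-PCR amplified, MiSeq 2 × 250 sequenced and CDR-length filtered. A clone's polyreactivity label is that of its gate of origin.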
On to “QVQLVESGGGLVQAGGSLRISCAASGFTFYRYAMGWSIPAPGKERELVAAISSHGDSTYYADSVKGRFTISRDNAKNTVYLQMNSLKPEDTAVYYCNVETLYGYFLHFYLRYYHWGQGTQVTVSS”, for which the “polyreactivity (PSR sort gate)” value is “high polyreactivity”.
To “QVQLVESGGGLVQAGGSLRISCAASGFTFYSNDMGWYRQAPGKERELVAAISYSGGSTYYADSVKGRFTISRDNAKNTVYLQMNSLKPEDTAVYYCAAGGLQQGDYWGQGTQVTVSS” belongs “low polyreactivity”; to “QVQLVESGGGLVQAGGSLRISCAASGGNFDSNAMGWTRPAPGKVRELVAAISDSGGSTYYADSVKGRFTISRDNAYNTVYLQMNSLKPEDTAVYYCAADSDYHFVNYRFGMDYWGQGTQVTVSS”, “low polyreactivity”; to “QVQLVESGGGLVQAGGSLRISCAASGIFPAYDMGWYRQAPGKERELVASISSDGSTYYADSVKGRFTISRDNAKNTVYLQMNSLKPEDTAVYYCNDVAIEPYYYVVYDIFDYWGQGTQVTVSS”, “low polyreactivity”.
On to “QVQLVESGGGLVQAGGSLRISCAASGIIFAANTMGWYRQAPGKERELVAAITSGGSTKYADSVKGRFTISRDNAKNTVYLQMNSLKPEDTAVYYCAAQYRYQRYSYAMEYWGQGTQVTVSS”, for which the “polyreactivity (PSR sort gate)” value is reported as “high polyreactivity”.
For the sequence “QVQLVESGGGLVQAGGSLRISCAASGIIFDTNAMGWYRQAPGKERELVATITQRGGTTYYADSVKGRFTISRDNAKNTVYLQMNSLKPEDTAVYYCAKDYWFGYEYWGQGTQVTVSS”, the “polyreactivity (PSR sort gate)” value is given as “low polyreactivity”.
For “QVQLVESGGGLVQAGGSLRISCAASGITFNVNAMGWSRQAPGKERELVARITTSGGSTSYADSVKGRFTISRDNAKNTVYLQMNSLKPEDTAVYYCAADRARYYSEYDYWGQGTQVTVSS” the value was “low polyreactivity”; for “QVQLVESGGGLVQAGGSLRISCAASGITFSYYAMGWYTPAPGKERELVAAINSGGGSTYYADSVKGRFTISRDNAKNTVYLQMNSLKPEDTAVYYCSARYRSRYDYYYDRDYWGQGTQVTVSS”, “low polyreactivity”.
As to “QVQLVESGGGLVQAGGSLRISCAASGITFYGYAMGWYRQAPGKERELVATISKSGGITSYADSVKGRFSISRDNAKNTVYLQMNSLKPEETAVYYCNRGKSYGGYDYWGQGTQVTVSS”, the “polyreactivity (PSR sort gate)” value was “low polyreactivity”.
For “QVQLVESGGGLVQAGGSLRISCAASGLIFGRYAMGWYRQAPGKERELVAAISSSGVRTYYADSVKGRFTISRDNAKNTVYLQMNSLKPEDTAVYYCAAAYWSSREDTVIKRYYWGQGTQVTVSS” the value was “high polyreactivity”; for “QVQLVESGGGLVQAGGSLRISCAASGLIFYSYAMGWYRQAPGKERELVAAISSGTRTYYADSVKGRFTISRDNAKNTVYLQMNSLKPEDTAVYYCAAVDAHKKRYPPSGRLYGYWGQGTQVTVSS”, “high polyreactivity”; for “QVQLVESGGGLVQAGGSLRISCAASGLIIAYAMGWYRPAPGKERELVAASSGRDGSTYYADSVKGRFTISRDNAKNTVYLHMNSLKPEATAVYYCAKRISYLPVEMDYWGQGTQLTVSS”, “low polyreactivity”.
For “QVQLVESGGGLVQAGGSLRISCAASGLTILFYAMAWYRQAPGKERELVASIRWSDGRTYYADSVKGRFTISRDNAKNTVYLQMNSLKPEDTAVYYCAARSYLTPEYYYWGQGTQVTVSS” the value was “high polyreactivity”; for “QVQLVESGGGLVQAGGSLRISCAASGLTSPIYAMGWYRQAPGKERELDAAISKNGGSTYYADSVKGRFTISRDNAKNTVYVQMNSLKPEDTAVYYCNAVVYHYTLDHEYDYWGQGTQVTVSS”, “high polyreactivity”.
For “QVQLVESGGGLVQAGGSLRISCAASGLYAMGWYRQAPGKERELVADINSSGGSITNYADSVKGRFTISRDNAKNTVYLQMNSLKPEDTAVYYCNPDVPGDTGWWGFDYWGQGTQVTVSS”, the “polyreactivity (PSR sort gate)” value was “low polyreactivity”.
As to “QVQLVESGGGLVQAGGSLRISCAASGNTFWKYAMGWYRQAPGKERELVAAISKSGGSTYYADSVKGRFTISRDNAKNTVYLQMNSLKPEDTAVYYCAAVNYRWYSRNYDHYYWGQGTQVTVSS”, the “polyreactivity (PSR sort gate)” value was “high polyreactivity”.
Consider “QVQLVESGGGLVQAGGSLRISCAASGRIFGANAMGWYRQAPAKERELVAAITSSGGNTYYADSVKGRFTISRDNAKNTVYLQMNCLKPEDTAVYYWSARSRWVSYNYWGQGTQVTVSS”, for which the “polyreactivity (PSR sort gate)” value was “high polyreactivity”.
For “QVQLVESGGGLVQAGGSLRISCAASGRIFIWYDMGWYRQAPGKERELVAAITQSDDITYYADSVKGRFTISRDNAKNTVYLQMNSLKPEDTAVYYCAARVLETSTPYGYWGQGTQVTVSS”, the “polyreactivity (PSR sort gate)” value is reported as “low polyreactivity”.
For “QVQLVESGGGLVQAGGSLRISCAASGRIFSEYAMGWYRQAPGKERELVATITWTGGSTTYADSVKGRFTISRDNAKNTVYLQINSLKPEDTAVYYCAADATRLRTRYKRDYWGQGTQVTVSS” the value was “high polyreactivity”.
To “QVQLVESGGGLVQAGGSLRISCAASGRIFWANVMGWYRQAPGKERELVAAITGGGRTYYADSVKGRFTISRDNAKNTVYLQMNSLKPEDTAVYYCNAELNWYYYIHLDYWGQGTQVTVSS” belongs “low polyreactivity”; to “QVQLVESGGGLVQAGGSLRISCAASGRIFYVYAMGWYRQAPGKERELVAAITSGGSTYYADSVKGRFTISRDNAKNTVYLQMNSLKPEDTAVYYCAAYNRGRFRPYRFEYWGQGTQVTVSS”, “high polyreactivity”.
For “QVQLVESGGGLVQAGGSLRISCAASGRILLRNVMGWYRQAPGKERELVAVITRTGITYYAYSVKGRFTISRDNAKNTVYLQMNSLKPEDTAVYYCAAGLPKYEHDYWGQGTQVTVSS” the value was “low polyreactivity”; for “QVQLVESGGGLVQAGGSLRISCAASGRTFDPYAMGWYRQAPGKERELVASISRGGSTYADSVKGRFTISRDNAKNTVYLQMNSLKPEDTAVYYCNTSLYTEGDAMDYWGQGTQVTVSS”, “low polyreactivity”.
Turning to “QVQLVESGGGLVQAGGSLRISCAASGRTFPGNAMGWYRQAPGKERELVAAISWSGTRTYYADSVKGRFTISRDNAKNTVYLQMNSLKPEDTAVYYCNVVVKGAWDYYPYDYWGQGTQVTVSS”, the “polyreactivity (PSR sort gate)” value is on record as “high polyreactivity”.
To “QVQLVESGGGLVQAGGSLRISCAASGRTFSGNAMGWYRQAPGKERELVAAISSGGSTNYADSVKGRFTISRDNAKNTVYLQMNSLKPEDTAVYFCARDAYLPRIADGDGRYELVDYWGHGTQVTVSS” belongs “low polyreactivity”.
In the case of “QVQLVESGGGLVQAGGSLRISCAASGRTFTRYAMGWYRQAPGKERELVASITTGGRTYYADSVKGRFTISRDNAKNTVYLQMNSLKPEDTAVYYCNADRVYAWYRTYDYWGQGTQVTVSS”, the “polyreactivity (PSR sort gate)” value is given as “high polyreactivity”.
To “QVQLVESGGGLVQAGGSLRISCAASGRTFYGNAMGWYRQAPGKEREFFAAISASGGSTYYADSVKGRFTISRDNAKNTVYLQLNSLKPEDTSVYYCATDLGAFSVPYSPYDYWGLGTQVTVSS” belongs “low polyreactivity”.
For “QVQLVESGGGLVQAGGSLRISCAASGSIFDSKAMGWYRQAPGKERELVASFTSSGGSTYYADSVKGRFTISRDNAKNTVYLPRNSRKPEDTAVYYCAADSYKTIQDAYDYWGQGTQVTVSS” the value was “high polyreactivity”; for “QVQLVESGGGLVQAGGSLRISCAASGSIFPEYAMGWYRQAPGKERELVAAITTSGGSTYYADSVKGRFTISRDNAKNTVYLQMNSLKPEDTAVYYCAVEYLVYLDYTYDYWGQGTQVTVSS”, “low polyreactivity”.
To “QVQLVESGGGLVQAGGSLRISCAASGSIFPRYAMGWYRQAPGKERELVAAISWRGGRTYYADSVKGRFTISRDNAKNTVYLQMNSLKPEDTAVYYCAARWRQRKSVRYGQQGYDYWGQGTQVTVSS” belongs “high polyreactivity”.
As to “QVQLVESGGGLVQAGGSLRISCAASGSIFRPNAMGRYRQAPGKERELVAAINTSDDSTYYADSVKGRFTISRDNAKNTVYLQMNSLKQEDTAVYYCAAEYYAYPYGDYYDYWGQGTQVTVSS”, the “polyreactivity (PSR sort gate)” value is “low polyreactivity”.
To “QVQLVESGGGLVQAGGSLRISCAASGSIFTFYAMGRYRQAPGKERELVATITWLGGSTYADSVKGRFTISRDNAKNTVYLQMNSLKPEDTAVYYCAKYLGRQHEKDLGGMNYWGQGTQVTVSS” belongs “high polyreactivity”.
Regarding “QVQLVESGGGLVQAGGSLRISCAASGSIFVHYAMGWYIPAPGKERELVAAITTSGGSTYYADSVKGRFTISRDNAKNTVYLQMNSLKPEDTAVYYCTARAVRYPFTGNYWGQGTQVTVSS”, the “polyreactivity (PSR sort gate)” value is reported as “high polyreactivity”.
For “QVQLVESGGGLVQAGGSLRISCAASGSIFYRNVMGWYRQAPGKERELVAAISSSGGRTHYADSVKGRFTISRDNAKNTVYLQMNSLKPEDTAVYYCTALYAPQEYGRRFPNDYWGQGTQVTVSS” the value was “high polyreactivity”; for “QVQLVESGGGLVQAGGSLRISCAASGSIFYWNTMGWYRQAPGKERELVATITRSGGSTRYADSVKGRCTISRDNAKITVYLQMNSLKPEDTAVYYCAAYRVYKRVVRGFDYWGQGTQVTVSS”, “low polyreactivity”.
To “QVQLVESGGGLVQAGGSLRISCAASGSISVYNAMGWYRQAPGKERELVAAISWSGGRTSYADSVKGRFTISRDNAKKTVYLQMNSLKPEDTEVYYCAADELTVLWDEDYWGQGTQVTVSS” belongs “low polyreactivity”; to “QVQLVESGGGLVQAGGSLRISCAASGSTFAGNAMGWYRQAPGKERELVAAIDSSTGSTYYADSVKGRFTISRDNAKNTVYLQMNSLKPEDTAVYYCNKTSFLVKLDYWGQGTQVTVSS”, “low polyreactivity”.
To “QVQLVESGGGLVQAGGSLRISCAASGSTFDPYGMGWYRQAPGTERELVAAITSSGRTNYADSVKGRFTISRDNAKNTVYLQMNSLKPEDTAVYYCATRKERYFYRGYEYWGQGTQVTVSS” belongs “low polyreactivity”.
With “QVQLVESGGGLVQAGGSLRISCAASGSTFDVNAMGWYRQAPGKERELVAAISWNSGSTYYADSVKGRFTISRDNAKNTVYLQMNSLKPEDTAVYYCAATYGTGRRSKYGYWGQGTQVTVSS”, the “polyreactivity (PSR sort gate)” value was “high polyreactivity”.
For “QVQLVESGGGLVQAGGSLRISCAASGSTFSYYAMGWYRQAPGKERELVAAISQTGGTTYYADSVKGRFTISRDNAKNTVYLQMNSLTPEDTAVYYSNAARPGGHYWGQGTQVTVSS” the value was “low polyreactivity”; for “QVQLVESGGGLVQAGGSLRISCAASGSTFYRNAMGWYRQAPGKEREFVAAISFRGGGTYADSVKGRFTISRDNAKNTVYLQMNSLKPEDTAVYYCAADHLSYRRRYEYWGQGTQVTVSS”, “low polyreactivity”.
